{"source": "paper PMC8016844", "about": "“Grb2 binding induces phosphorylation-independent activation of Shp2” (Communications Biology, 2021)", "binders": {"B1": {"name": "isolated NSH3 domain of Grb2 (Grb2_(NSH3)) (domain or fragment)", "chain": "MEAIAKYDFKATADDELSFKRGDILKVLNEECDQNWYKAELNGKDGFIPKNYIEMKPH"}}, "target": "T1, Shp2 N-terminal SH2 domain (Shp2_(NSH2)) (UniProt Q06124 6-102)", "T1 construct": "Shp2 (PTPN11), N-terminal SH2 domain; Atto 488 labelled in MST; uniformly 15N-labelled in the NMR titration; Perturbed residues up to Y100 are named, so the construct reaches at least residue 100; also called Shp2-NSH2 domain; source: E. coli BL21 (DE3), pET28b, purified (Talon buffers, Superdex SD75)", "T1 sequence (looked up)": "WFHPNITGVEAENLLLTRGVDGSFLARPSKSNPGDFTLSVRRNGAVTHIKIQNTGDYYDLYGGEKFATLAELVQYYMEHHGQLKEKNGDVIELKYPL", "assay": "MST; target protein labelled with Atto 488 NHS ester, 100 nM; unlabelled ligand serially diluted; Monolith NT.115; 25 °C; 20 mM HEPES pH 7.5, 150 mM NaCl, 0.5 mM TCEP, 0.005% Tween 20", "settings": "both partners purified", "data": [{"binder": "B1", "values": [{"measurement": "Kd", "value": "422 ± 21.5", "unit": "µM"}]}]}
